The values below come from patent US20250243261A1.

The target in test [1] is HA H4 Hubei, A/swine/Hubei/06/2009(H4N1) (Influenza A virus).
Test [2] has as its target HA H7 HK16, A/Hong Kong/61/2016(H7N9) (Influenza A virus).
Test [3] concerns the target HA H4 Hubei, A/swine/Hubei/06/2009(H4N1) (Influenza A virus). The source holds these as a separate data set.
Test [4] concerns the target HA H7 HK17, A/Hong Kong/125/2017(H7N9) (Influenza A virus).
Test [5] addresses HA H2 Japan, A/Japan/305/1957(H2N2) (Influenza A virus).
Test [6] has as its target HA H5 Vietnam, A/Vietnam/1203/2004(H5N1) (Influenza A virus).
The target of test [7] is HA H7 HK17, A/Hong Kong/125/2017(H7N9) (Influenza A virus). This is another data set of the same source.
The target is the same in test [8]. The source holds these as a separate data set.
The target in test [9] is HA H7 HK16, A/Hong Kong/61/2016(H7N9) (Influenza A virus). The source holds these as a separate data set.

Where two headings read alike, the source gives them in different places. Some results are limits rather than exact numbers.

By Kd is commonly meant the concentration at which binding is half-saturated. Higher therefore signals weaker binding. For MEDI8852 VL L29V Fab, the Kd in test [1] came to 4.2 nM; in test [2], 80 nM.

Turning to MEDI8852 VL T25A Fab, the Kd in test [1] turned out to be 1.45 nM; in test [2], 16.8 nM.

Turning to “MEDI8852 UCA VH K58S-V65P IgG (antibody)”, the equilibrium dissociation constant (Kd) in test [3] worked out at 80 nM.

Turning to MEDI8852 VH S44G Fab, the Kd was found to be 0.596 nM in [1] and 7.03 nM in test [2].

Turning to MEDI8852 VH E65P-M117Y Fab, the Kd in test [1] amounted to 0.36 nM; in test [2], 2.7 nM; in test [4], 0.043 nM.

On to MEDI8852 VH P75R Fab, for which the Kd in test [1] is 0.779 nM; in test [2], 7.14 nM.

Consider MEDI8852 VL G55A Fab, for which the figures for the Kd in [1] and in test [2] were 0.512 nM and 5.11 nM, respectively.

With MEDI8852 VH E65R Fab, the Kd in [1] was 0.32 nM; in test [2], 1.54 nM; in [4], 0.036 nM; in test [5], below 1 pM; in test [6], below 1 pM.

Take MEDI8852 VH I24V Fab: the Kd in test [1] was 0.87 nM; in [2], 8.58 nM.

In the case of MEDI8852 VH N74S Fab, the Kd in [1] was found to be 0.531 nM; in test [2], 5.98 nM.

Consider MEDI8852 VH T53I Fab, for which the Kd in [1] is 0.747 nM; in test [2] it was 10.3 nM.

For MEDI8852 VL G95P Fab, the Kd in test [1] turned out to be 0.802 nM; in [2], 5.31 nM.

Take MEDI8852 VL T33L Fab: the Kd in test [1] worked out at 3.2 nM; in [2], 41 nM.

On to “MEDI8852 UCA VH K58S-V65P/VL G95P IgG (antibody)”, for which the Kd came to 30 nM in test [3] and 5.6 nM in [7].

Consider MEDI8852 VH D27F Fab, for which the Kd in test [1] was 0.9 nM; in test [2], 9 nM.

In test [2], MEDI8852 VL R92D Fab showed a Kd of 26.4 nM.

On to MEDI8852 VH M117Y Fab, for which the Kd in test [1] amounted to 0.356 nM; in test [2], 4.07 nM.

In the case of MEDI8852 VH E65P Fab, the Kd was 0.31 nM in test [1]; 2.33 nM in test [2]; 0.1 nM in test [4]; below 1 pM in [5]; below 1 pM in test [6].

MEDI8852 VH E65R-M117Y Fab: the Kd was 0.248 nM in [1]; 1.7 nM in test [2]; 0.02 nM in test [4]; below 1 pM in test [5]; below 1 pM in test [6]. In test [8], this substance displayed a fold improvement in Kd vs wildtype of 10 fold. For the same substance, in [9], the fold improvement in Kd over wildtype came out at 3.6 fold.
